Experimental findings from US20090318342A1, “Compounds” (IMPERIAL INNOVATIONS LIMITED, published 2009) are described below.

The target in one assay is gelatinase A (MMP-2) (Homo sapiens (Human), UniProt P08253). The assay is described as follows: enzyme inhibition kinetics, Ki(app), as in Example 1.
In assay [1] the target is full-length collagenase 1 (MMP-1) (Homo sapiens (Human), UniProt P03956). The assay is described as above.
For another assay, the target named is T1, ADAMTS-5 (Homo sapiens (Human), UniProt Q9UNA0).
T1 sequence: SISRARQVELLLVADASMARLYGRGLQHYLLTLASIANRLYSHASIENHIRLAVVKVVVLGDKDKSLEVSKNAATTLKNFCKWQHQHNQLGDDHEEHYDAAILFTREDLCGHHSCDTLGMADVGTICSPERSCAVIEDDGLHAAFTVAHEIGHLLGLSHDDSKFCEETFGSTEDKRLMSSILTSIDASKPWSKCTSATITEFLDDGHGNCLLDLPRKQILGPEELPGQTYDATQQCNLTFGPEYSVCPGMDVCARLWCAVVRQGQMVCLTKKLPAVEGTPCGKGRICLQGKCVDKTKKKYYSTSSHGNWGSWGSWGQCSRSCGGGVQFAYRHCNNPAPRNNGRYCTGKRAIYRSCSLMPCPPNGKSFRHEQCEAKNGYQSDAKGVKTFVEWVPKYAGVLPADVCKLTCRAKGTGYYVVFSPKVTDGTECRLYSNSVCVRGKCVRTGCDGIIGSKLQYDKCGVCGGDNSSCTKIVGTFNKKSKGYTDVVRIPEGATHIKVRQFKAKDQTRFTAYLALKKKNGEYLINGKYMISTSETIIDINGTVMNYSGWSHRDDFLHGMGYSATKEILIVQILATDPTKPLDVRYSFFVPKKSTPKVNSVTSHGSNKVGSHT
The assay can be described thus: GST-IGD-FLAG substrate assay, Ki(app). Here is the method: (§1) Aggrecanase assays were carried out in 50 mM Tris HCl pH 7.5, 150 mM NaCl, 10 mM CaCl₂, 0.02% NaN₃, 0.05% Brij-35 at 37° C. When N-TIMP-3 was used, the inhibitor was preincubated with the enzyme for 1 hour. Reaction volumes were a total of 10 μl, consisting of 5 μl of GST-IGD-FLAG substrate (34 μM), and 5 μl of ADAMTS-4 or ADAMTS-5 (2 nM) with or without inhibitor. Enzyme amounts and incubation times were as indicated. Enzyme reactions were stopped at appropriate time points with the addition of 10 μl 2×SDS-PAGE samples loading buffer containing 20 mM EDTA. Reactions were then applied to a 10% SDS-PAGE analysis. Proteins were stained using Coomassie Brilliant Blue R-250. The stained gels were then scanned using a scanning densitometer (Biorad GS-710, Hemel Hempstead, UK) and the band intensity of the product (17 kDa) quantified using the 1D Phoretix quantification software (Nonlinear Dynamics, Newcastle upon Tyne, UK). Background subtraction was done using the rolling ball method, and band intensity expressed as pixel volumes.

Assay [2] has as its target T2, ADAMTS-4 (as used in Example 4; form not stated) (Homo sapiens (Human), UniProt O75173).
T2 sequence: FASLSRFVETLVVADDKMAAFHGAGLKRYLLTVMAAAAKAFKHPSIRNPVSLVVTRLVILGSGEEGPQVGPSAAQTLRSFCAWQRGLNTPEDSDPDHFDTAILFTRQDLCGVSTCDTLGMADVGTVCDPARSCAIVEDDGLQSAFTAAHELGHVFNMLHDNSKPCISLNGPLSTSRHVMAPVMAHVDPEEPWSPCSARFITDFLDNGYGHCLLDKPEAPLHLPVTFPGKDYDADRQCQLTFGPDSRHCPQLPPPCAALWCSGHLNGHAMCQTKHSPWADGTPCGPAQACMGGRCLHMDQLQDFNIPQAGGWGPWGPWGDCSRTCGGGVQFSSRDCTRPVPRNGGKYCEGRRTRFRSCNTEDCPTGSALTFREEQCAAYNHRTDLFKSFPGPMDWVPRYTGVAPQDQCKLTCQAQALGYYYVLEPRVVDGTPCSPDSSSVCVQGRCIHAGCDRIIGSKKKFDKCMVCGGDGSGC
The assay is described as follows: GST-IGD-FLAG substrate assay, Ki(app). Here is the method:
as §1

B1: (-2A)N-TIMP-3 (other)
chain: AACTCSPSHPQDAFCNSDIVIRAKVVGKKLVKEGPFGTLVYTIKQMKMYRGFTKMPHVQYIHTEASESLCGLKLEVNKYQYLLTGRVYDGKMYTGLCNFVERWDQLTLSQRKGLNYRYHLGCN
For B1, the Ki is over 250 nM with gelatinase A (MMP-2), over 500 nM in assay [1], 1.4 nM in the assay with ADAMTS-5 and 67 nM in assay [2].
